Measurements from the supplement of paper PMC9732359.
± gives the uncertainty stated by the source.

Experiment: protein stability index of a GFP-peptide fusion (yeast GPS) (PSI 1-4); higher = more stable; sorted into four equal gates, so the index is relative within each strain
Procedure, shortened: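 The protein stability index of a peptide was calculated by multiplying its read frequency in each gate by that gate's number and adding the products. The peptides were tiled 17-residue stretches of yeast proteins, fused downstream of GFP on a Cherry-expressing plasmid and carried in yeast as a pooled library. Mid-log cultures in leucine-free medium were sorted into four equal gates by GFP/Cherry ratio, and each gate's plasmids were PCR-amplified and Illumina-sequenced.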

Row | Sequence | protein stability index (doa10∆) | protein stability index (pdr5∆) | protein stability index (ubr1∆) | protein stability index (san1∆)
1 | GESARRFQKCFPPGVIG [RPC40] | 2.24 ± 0.1 | 2.34 ± 0.18 | 2.83 ± 0.12 | 
2 | GFALNSDIVFIHQNAGR [BRR2] | 3.03 ± 0.12 | 2.09 ± 0.09 | 2.02 ± 0.057 | 1.78 ± 0.2
3 | GFANSLTFILGQLLSVK [YML031W/NDC1] | 1.13 ± 0.13 | 1.46 ± 0.18 | 1.26 ± 0.12 | 1.2 ± 0.22
4 | GFIETTELLNIYDSEDP [RPN3] | 2.71 ± 0.091 | 3.01 ± 0.095 | 3.06 ± 0.075 | 2.85 ± 0.084
5 | GFTASVSNQENAGTDIV [MED1] | 2.95 ± 0.14 | 2.91 ± 0.13 | 3.07 ± 0.072 | 2.64 ± 0.16
6 | GFVIQDRETALDFIGRR [RPB2] | 3.02 ± 0.075 | 2.92 ± 0.13 | 3 ± 0.11 | 3.34 ± 0.077
7 | GGDGRDYKGAKLNVVGW [RRI1] | 3.15 ± 0.15 | 3.15 ± 0.15 | 3.23 ± 0.084 | 2.56 ± 0.12
8 | GGLNDPRLGSIDRNLKC [RPO21] | 3.35 ± 0.17 | 3.28 ± 0.11 | 3.33 ± 0.086 | 3.32 ± 0.094
9 | GGQRSLIALSLIMALLQ [SMC2] | 1.33 ± 0.056 | 1.52 ± 0.063 | 2.24 ± 0.036 | 1.73 ± 0.099
10 | GGSAKPSLKFKPKAVAR [RPC53] | 2.79 ± 0.11 | 2.7 ± 0.081 | 2.92 ± 0.073 | 2.44 ± 0.067
11 | GGSTTNNTTTTSTKPSF [YOR098C/NUP1] | 2.79 ± 0.075 | 3.01 ± 0.074 | 2.75 ± 0.067 | 2.8 ± 0.072
12 | GGVMANRKIARMRHSKR [YOR098C/NUP1] | 3.31 ± 0.13 | 3.6 ± 0.085 | 3.32 ± 0.1 | 3.34 ± 0.09
13 | GHIVSLELTTGATYRGK [SMD3] | 1.98 ± 0.049 | 2.03 ± 0.049 | 2.34 ± 0.053 | 2.12 ± 0.085
14 | GHLNGHTPTIASYLTPL [SSN2] | 2.24 ± 0.039 | 2.74 ± 0.043 | 2.54 ± 0.035 | 2.62 ± 0.044
15 | GHPMTKSVYETPKITAA [SEC65] | 2.83 ± 0.17 | 2.63 ± 0.084 | 1.91 ± 0.062 | 2.03 ± 0.24
16 | GHYQAFIRDELDENKWY [UBP6] | 1.49 ± 0.057 | 1.88 ± 0.047 | 1.85 ± 0.063 | 1.53 ± 0.12
17 | GIDINTKIFNSVAEVFQ [YCG1] | 2.08 ± 0.1 | 2.93 ± 0.12 | 2.86 ± 0.067 | 2.39 ± 0.12
18 | GIHILLYSGLIIDEIIT [RPC82] | 1.15 ± 0.094 | 1.41 ± 0.25 | 1.21 ± 0.082 | 
19 | GINQILGNEKNQASTSK [CDC53] | 3.08 ± 0.15 | 3.25 ± 0.14 | 3.2 ± 0.073 | 3.11 ± 0.092
20 | GIRIISLTYKKISLRDI [RPN3] | 1.78 ± 0.068 | 1.4 ± 0.065 | 1.5 ± 0.053 | 1.29 ± 0.15
21 | GIRYIRLKQVFNRALDQ [NNF1] | 1.79 ± 0.035 | 1.95 ± 0.027 | 2.12 ± 0.025 | 2.04 ± 0.036
22 | GISINNMMEHWDYLQLT [RPO31] | 2.84 ± 0.087 | 2.81 ± 0.073 | 2.65 ± 0.065 | 2.8 ± 0.14
23 | GISLVMEIVANAKESNY [MED1] | 1.77 ± 0.065 | 1.98 ± 0.069 | 2.15 ± 0.043 | 2.28 ± 0.085
24 | GISNGSESKDSDKPSLP [YLR335W/NUP2] | 3.29 ± 0.13 | 3.19 ± 0.12 | 2.79 ± 0.13 | 
25 | GISSAYIKSATLYSVKS [SNU114] | 1.39 ± 0.12 | 1.43 ± 0.11 | 1.75 ± 0.17 | 1.67 ± 0.26

Row | Sequence | protein stability index (doa10∆) | protein stability index (pdr5∆) | protein stability index (ubr1∆) | protein stability index (san1∆)
26 | GITGNLDRIPMHSYFIF [COB] | 2.13 ± 0.12 | 2.19 ± 0.085 | 2.43 ± 0.12 | 2.39 ± 0.072
27 | GKDCKLQNLQRIIRKKI [RRI2] | 2.98 ± 0.092 | 3.51 ± 0.14 | 3.05 ± 0.13 | 3.14 ± 0.096
28 | GKDLSPAINYTKLKNAV [QCR2] | 1.91 ± 0.064 | 1.64 ± 0.06 | 1.54 ± 0.048 | 2.15 ± 0.094
29 | GKDRIAINVFPEGYKAK [RPO31] | 2.37 ± 0.061 | 2.28 ± 0.079 | 2.68 ± 0.072 | 2.5 ± 0.07
30 | GKGPGCGFWQPAWRVWL [PRP8] | 2.58 ± 0.19 |  | 2.1 ± 0.19 | 
31 | GKGRFQTPAEKHAFMGT [RPL3] | 3.13 ± 0.17 | 3.2 ± 0.061 | 2.98 ± 0.093 | 2.97 ± 0.1
32 | GKGTGKTAMAELALLNH [BRR2] | 3.19 ± 0.11 | 3.51 ± 0.15 | 3.22 ± 0.082 | 3.45 ± 0.099
33 | GKLLLDEHNELMRQALA [RPO21] | 2.41 ± 0.052 | 2.54 ± 0.086 | 2.84 ± 0.051 | 2.02 ± 0.074
34 | GKLLRNYTQNIDNLESY [SIR2] | 3.48 ± 0.21 | 3.17 ± 0.27 |  | 3.09 ± 0.13
35 | GKLVESEDSMNVQLRDV [SMD3] | 3.26 ± 0.14 | 3.32 ± 0.1 | 3.26 ± 0.041 | 3.33 ± 0.065
36 | GKSTADVKSSDSLKLNS [YJL041W/NSP1] | 3.23 ± 0.14 | 3.35 ± 0.12 | 3.32 ± 0.14 | 2.96 ± 0.17
37 | GKTTSCTKLAVYYSKRG [SRP54] |  | 2.76 ± 0.19 | 2.51 ± 0.098 | 2.18 ± 0.22
38 | GKVVKNVLLLDSNGDFN [RRP46] | 3.35 ± 0.068 | 3.22 ± 0.058 | 3.27 ± 0.043 | 3.29 ± 0.063
39 | GKYVIAGHVSGVITVHN [RPN14] | 1.55 ± 0.098 | 2.48 ± 0.092 | 3.23 ± 0.038 | 2.48 ± 0.1
40 | GLCMLGTGKPEAIHDMF [RPN2] | 2.75 ± 0.15 | 3.46 ± 0.29 | 3.18 ± 0.075 | 3.19 ± 0.064
41 | GLDATKLYVSHIQVNQA [RPL17A] | 2.5 ± 0.096 | 2.99 ± 0.063 | 3.05 ± 0.05 | 3 ± 0.043
42 | GLDKFSNIDIRVRVTGG [RPS16A] | 1.51 ± 0.082 | 1.74 ± 0.072 | 1.54 ± 0.055 | 1.52 ± 0.22
43 | GLFEKSTVSANHSNNDI [BRN1] | 3.12 ± 0.14 | 2.95 ± 0.11 | 3.11 ± 0.12 | 3.19 ± 0.08
44 | GLIPADATFAGHSLGEY [FAS1] | 3.01 ± 0.087 | 3.21 ± 0.06 | 3.03 ± 0.059 | 3.08 ± 0.11
45 | GLNRHYYSLNIDYHKTA [RPN11] |  | 2.27 ± 0.29 | 2.61 ± 0.14 | 2.85 ± 0.12
46 | GLPLGIAEEKMWSQFQT [YGR119C/NUP57] | 2.84 ± 0.14 |  | 3.05 ± 0.19 | 
47 | GLPTDAYVAIEQVKDDG [RPN8] | 2.61 ± 0.076 | 1.92 ± 0.1 | 2.34 ± 0.08 | 2.59 ± 0.23
48 | GLPVGAIMNCADNSGAR [RPL23A] | 1.91 ± 0.053 | 2.28 ± 0.06 | 1.83 ± 0.055 | 1.63 ± 0.068
49 | GLQDEIMKIGGIKLQMQ [SMC4] | 2.8 ± 0.071 | 3.13 ± 0.053 | 3.17 ± 0.089 | 3.02 ± 0.058
50 | GLQGSGKTTSCTKLAVY [SRP54] | 2.47 ± 0.12 | 2.91 ± 0.077 | 2.66 ± 0.089 | 1.97 ± 0.27

Row | Sequence | protein stability index (doa10∆) | protein stability index (pdr5∆) | protein stability index (ubr1∆) | protein stability index (san1∆)
51 | GLSTDHTTQIVNLEDNT [YML103C/NUP188] | 2.89 ± 0.074 | 2.99 ± 0.078 | 3.04 ± 0.047 | 2.88 ± 0.053
52 | GLTQLYKKSTENESTNY [MED7] | 3.08 ± 0.081 | 2.84 ± 0.081 | 2.96 ± 0.05 | 2.56 ± 0.1
53 | GMCQLYFWHKIWRKVPG [SNU114] | 1.97 ± 0.064 | 1.8 ± 0.057 | 2.14 ± 0.048 | 2.12 ± 0.091
54 | GNESVKPQFENHVKQFY [MED11] | 2.83 ± 0.19 | 2.57 ± 0.22 |  | 
55 | GNITRGLAVGLALINYG [RPN2] | 1.43 ± 0.17 | 1.22 ± 0.11 | 1.51 ± 0.086 | 1.7 ± 0.15
56 | GNKNQFEPSISRSNFQG [LRP1] | 2.76 ± 0.13 | 2.7 ± 0.16 | 2.34 ± 0.21 | 2.74 ± 0.073
57 | GNLYSKVMNNSFKLCTL [YML103C/NUP188] | 3.21 ± 0.21 | 2.8 ± 0.15 | 3.07 ± 0.22 | 2.87 ± 0.14
58 | GNPGLPQYQYQRRYVIK [ITC1] | 3.27 ± 0.2 | 3.04 ± 0.15 | 3.34 ± 0.095 | 2.87 ± 0.079
59 | GNPLLYDGVERVSLQDI [QCR2] | 1.73 ± 0.23 | 2.18 ± 0.17 | 2.19 ± 0.17 | 2.03 ± 0.17
60 | GPDTKGQLEDFDSELIH [SMC3] | 3.1 ± 0.21 | 3.52 ± 0.18 | 3.62 ± 0.22 | 
61 | GPKSGSTMGTPTVHNST [PGD1] | 3.05 ± 0.078 | 3.04 ± 0.055 | 3.12 ± 0.06 | 3.01 ± 0.061
62 | GPLAEEPIYGVQYKLLS [SNU114] | 2.9 ± 0.11 | 2.6 ± 0.12 | 3.17 ± 0.13 | 2.74 ± 0.08
63 | GPPQSLYGLNLTLRKAK [FAS1] | 2.81 ± 0.064 | 2.15 ± 0.065 | 2.42 ± 0.051 | 3.32 ± 0.06
64 | GPVRENDILVLMESERE [RPS28A] | 2.61 ± 0.23 | 3.4 ± 0.083 | 2.81 ± 0.092 | 3.26 ± 0.14
65 | GQIITLFSSRRLQAKRL [RMP1] | 2.78 ± 0.078 | 2.76 ± 0.052 | 2.65 ± 0.064 | 2.89 ± 0.051
66 | GQLVELYVPRKCSATNR [RPS21A] | 2.46 ± 0.2 | 1.32 ± 0.19 | 1.38 ± 0.069 | 1.13 ± 0.22
67 | GRGLWNPSYPGMMSTTG [YJL039C/NUP192] | 2.99 ± 0.092 | 3.12 ± 0.053 | 3.1 ± 0.097 | 3.14 ± 0.074
68 | GRGRGRGRPPKARNGLD [SNF2] | 3.13 ± 0.084 | 3.17 ± 0.075 | 3.33 ± 0.057 | 3.29 ± 0.047
69 | GRILKWLWPLCRGELKA [CDC53] | 1.58 ± 0.095 | 1.64 ± 0.06 | 1.13 ± 0.045 | 1.32 ± 0.11
70 | GRIPNVPVIVKARFVSK [RPL28] | 2.32 ± 0.025 | 2.575 ± 0.024 | 2.648 ± 0.021 | 2.599 ± 0.025
71 | GRNNGKKLKAVRIIKHT [RPS5] | 2.06 ± 0.12 | 2.25 ± 0.08 | 2.81 ± 0.082 | 1.79 ± 0.09
72 | GRPRGRPKKVKLEGSEN [SNF2] | 3.41 ± 0.19 | 3.21 ± 0.21 | 3.65 ± 0.17 | 3.27 ± 0.098
73 | GSAEFNVKYRAVVFKPF [RPB7] | 2.81 ± 0.14 | 1.85 ± 0.11 | 2.85 ± 0.17 | 2.46 ± 0.1
